Patent US20140010817A1 (Daiichi Sankyo, published 2014)

molecular target: T1, RX protein purified from the culture supernatant of ADSF cells (murine mammary tumor virus (MMTV) …, UniProt P03374 99-474; P03374 475-651); test: SPR (ProteOn XPR36), antibody immobilized by amine coupling, RX protein as analyte
T1 construct: also called purified RX protein; ADSF cell-derived RX protein
From the text: (§1) Each antibody was immobilized on a sensor chip (Sensor Chip GLM; Bio-Rad Laboratories, Inc.) by the amine coupling method. The chip was blocked by the addition of 1 M ethanolamine hydrochloride (pH 8.5). ProteOn PBS/Tween, pH 7.4 (PBS, pH 7.4, 0.005% Tween 20) was used as a running buffer solution. The purified RX protein was serially diluted and interacted as an analyte with the immobilized monoclonal antibody to determine the binding affinity. The association rate constant ka and the dissociation rate constant kd were calculated by kinetics analysis using ProteOn Manager™.

Row | Binder | Kd [nM]
1 | Monoclonal Antibody 3 (MAb3) (antibody, V domains shown) VH: QVKLEESGGGLVKPGGSLKLSCAASGFSFSRNVMSWVRQTPEKRLEWVATISAGGSYTYYPDSVKGRFTISRDNAKNTLYLQMSSLRSEDTAMYYCARLNYNDNGNYFDYWGQGTTLTVSS VL: DIVMTQSTAIMSASLGEKVTMSCRASSSVVYMYWYQQKSDASPKLWIYYTSNLAPGVPARFSGSGSGNSYSLTISSMEGEDAATYYCQQFTSSPYTFGGGTKLEIKR | ~0.1
2 | Monoclonal Antibody 1 (MAb1) (antibody, also called rat antibody MAb1; recombinant MAb1) heavy: EVQLVESGGGLVQPGRSLKLSCVGSGFTFSDYYMAWVRQAPKKGLEWVASISYEGSNTNFGDSVKGRFTISRDSAKSTLYLQMNSLRSEDTATYYCARWAQTGYYFDYWGQGVMVTVSSAETTAPSVYPLAPGTALKSNSMVTLGCLVKGYFPEPVTVTWNSGALSSGVHTFPAVLQSGLYTLTSSVTVPSSTWSSQAVTCNVAHPASSTKVDKKIVPRECNPCGCTGSEVSSVFIFPPKTKDVLTITLTPKVTCVVVDISQNDPEVRFSWFIDDVEVHTAQTHAPEKQSNSTLRSVSELPIVHRDWLNGKTFKCKVNSGAFPAPIEKSISKPEGTPRGPQVYTMAPPKEEMTQSQVSITCMVKGFYPPDIYTEWKMNGQPQENYKNTPPTMDTDGSYFLYSKLNVKKETWQQGNTFTCSVLHEGLHNHHTEKSLSHSPGK light: DIQMTQSPASLSASLGETVTIECLASEDIYSNLAWYQQKPGKSPQLLIYYANSLNDGVPSRFSGSGSGTQFSLKINSLQSEDVSIYFCQQNYDSPYTFGAGAKLELKRADAAPTVSIFPPSTKQLATGGASVVCLMNNFYPRDISVKWKIDGTERRDGVLDSVTDQDSKDSTYSMSSTLSLTKADYESHNLYTCEVVHKTSSSPVVKSFNRNEC | ~0.1

molecular target: T1, RX protein purified from the culture …; test: SPR (ProteOn XPR36), humanized MAb1 captured on immobilised Protein A/G, RX protein as analyte
Method: Specifically, a Protein A-Protein G fusion protein Protein A/G (Thermo Fisher Scientific K.K.) was immobilized on the GLM sensor chip of ProteOn XPR36 (Bio-Rad Laboratories, Inc.) by the amine coupling method. […] The dissociation constant, i.e., binding affinity, was calculated from the ratio therebetween.

Row | Binder | Kd [nM]
3 | humanized antibody T14 (antibody, V domains shown, also called humanized MAb1 (H5/L2)) VH: EVQLVESGGGLVQPGRSLRLSCAASGFTFSDYYMAWVRQAPGKGLEWVASISYEGSNTNFGDSVKGRFTISRDSSKNTLYLKMNSLRAEDTAVYYCARWAQTGYYFDYWGQGTLVTVSS VL: DIQMTQSPSSLSASVGDRVTITCLASEDIYSNLAWYQQKPGKSPKLLIYYANSLNDGVPSRFSGSGSGTDFTLTISRLQPEDFATYYCQQNYDSPYTFGQGTKVEIKR | 0.19
4 | humanized antibody T1 (antibody, V domains shown, also called humanized MAb1 (H1/L1)) VH: EVQLVESGGGLVQPGRSLRLSCAASGFTFSDYYMAWVRQAPGKGLEWVSSISYEGSNTNFGDSVKGRFTISRDNSKNTLYLKMNSLRAEDTAVYYCARWAQTGYYFDYWGQGTLVTVSS VL: DIQMTQSPSSLSASVGDRVTITCLASEDIYSNLAWYQQKPGKAPKLLIYYANSLNDGVPSRFSGSGSGTDFTLTISRLQPEDFATYYCQQNYDSPYTFGQGTKVEIKR | 2.5
5 | humanized antibody T2 (antibody, V domains shown, also called humanized MAb1 (H1/L2)) VH: EVQLVESGGGLVQPGRSLRLSCAASGFTFSDYYMAWVRQAPGKGLEWVSSISYEGSNTNFGDSVKGRFTISRDNSKNTLYLKMNSLRAEDTAVYYCARWAQTGYYFDYWGQGTLVTVSS VL: DIQMTQSPSSLSASVGDRVTITCLASEDIYSNLAWYQQKPGKSPKLLIYYANSLNDGVPSRFSGSGSGTDFTLTISRLQPEDFATYYCQQNYDSPYTFGQGTKVEIKR | 1.9
6 | humanized antibody T3 (antibody, V domains shown, also called humanized MAb1 (H1/L3)) VH: EVQLVESGGGLVQPGRSLRLSCAASGFTFSDYYMAWVRQAPGKGLEWVSSISYEGSNTNFGDSVKGRFTISRDNSKNTLYLKMNSLRAEDTAVYYCARWAQTGYYFDYWGQGTLVTVSS VL: DIQMTQSPSSLSASVGDRVTITCLASEDIYSNLAWYQQKPGKSPQLLIYYANSLNDGVPSRFSGSGSGTDFTLTISRLQPEDFATYFCQQNYDSPYTFGQGTKVEIKR | 2.5
7 | humanized antibody T4 (antibody, V domains shown, also called humanized MAb1 (H2/L1)) VH: EVQLVESGGGLVQPGRSLRLSCAASGFTFSDYYMAWVRQAPGKGLEWVASISYEGSNTNFGDSVKGRFTISRDNSKNTLYLKMNSLRAEDTAVYYCARWAQTGYYFDYWGQGTLVTVSS VL: DIQMTQSPSSLSASVGDRVTITCLASEDIYSNLAWYQQKPGKAPKLLIYYANSLNDGVPSRFSGSGSGTDFTLTISRLQPEDFATYYCQQNYDSPYTFGQGTKVEIKR | 2
8 | humanized antibody T6 (antibody, V domains shown, also called humanized MAb1 (H2/L3)) VH: EVQLVESGGGLVQPGRSLRLSCAASGFTFSDYYMAWVRQAPGKGLEWVASISYEGSNTNFGDSVKGRFTISRDNSKNTLYLKMNSLRAEDTAVYYCARWAQTGYYFDYWGQGTLVTVSS VL: DIQMTQSPSSLSASVGDRVTITCLASEDIYSNLAWYQQKPGKSPQLLIYYANSLNDGVPSRFSGSGSGTDFTLTISRLQPEDFATYFCQQNYDSPYTFGQGTKVEIKR | 2
9 | humanized antibody T8 (antibody, V domains shown, also called humanized MAb1 (H3/L1)) VH: EVQLVESGGGLVQPGRSLRLSCAGSGFTFSDYYMAWVRQAPGKGLEWVASISYEGSNTNFGDSVKGRFTISRDSSKNTLYLKMNSLRAEDTAVYYCARWAQTGYYFDYWGQGTLVTVSS VL: DIQMTQSPSSLSASVGDRVTITCLASEDIYSNLAWYQQKPGKAPKLLIYYANSLNDGVPSRFSGSGSGTDFTLTISRLQPEDFATYYCQQNYDSPYTFGQGTKVEIKR | 0.17
10 | humanized antibody T9 (antibody, V domains shown, also called humanized MAb1 (H3/L2)) VH: EVQLVESGGGLVQPGRSLRLSCAGSGFTFSDYYMAWVRQAPGKGLEWVASISYEGSNTNFGDSVKGRFTISRDSSKNTLYLKMNSLRAEDTAVYYCARWAQTGYYFDYWGQGTLVTVSS VL: DIQMTQSPSSLSASVGDRVTITCLASEDIYSNLAWYQQKPGKSPKLLIYYANSLNDGVPSRFSGSGSGTDFTLTISRLQPEDFATYYCQQNYDSPYTFGQGTKVEIKR | 0.25
11 | humanized antibody T10 (antibody, V domains shown, also called humanized MAb1 (H3/L3)) VH: EVQLVESGGGLVQPGRSLRLSCAGSGFTFSDYYMAWVRQAPGKGLEWVASISYEGSNTNFGDSVKGRFTISRDSSKNTLYLKMNSLRAEDTAVYYCARWAQTGYYFDYWGQGTLVTVSS VL: DIQMTQSPSSLSASVGDRVTITCLASEDIYSNLAWYQQKPGKSPQLLIYYANSLNDGVPSRFSGSGSGTDFTLTISRLQPEDFATYFCQQNYDSPYTFGQGTKVEIKR | 0.47
12 | humanized antibody T11 (antibody, V domains shown, also called humanized MAb1 (H3/L5)) VH: EVQLVESGGGLVQPGRSLRLSCAGSGFTFSDYYMAWVRQAPGKGLEWVASISYEGSNTNFGDSVKGRFTISRDSSKNTLYLKMNSLRAEDTAVYYCARWAQTGYYFDYWGQGTLVTVSS VL: DIQMTQSPSSLSASVGDRVTITCLASEDIYSNLAWYQQKPGKSPKLLIYYANSLNDGVPSRFSGSGSGTDFTLTISSLQPEDFATYYCQQNYDSPYTFGQGTKVEIKR | 0.37
13 | humanized antibody T12 (antibody, V domains shown, also called humanized MAb1 (H4/L4)) VH: EVQLVESGGGLVQPGRSLRLSCAGSGFTFSDYYMAWVRQAPGKGLEWVASISYEGSNTNFGDSVKGRFTISRDSAKNTLYLKMNSLRAEDTAVYYCARWAQTGYYFDYWGQGTLVTVSS VL: DIQMTQSPSSLSASVGDRVTITCLASEDIYSNLAWYQQKPGKSPQLLIYYANSLNDGVPSRFSGSGSGTDFTLTISRLQPEDFATYFCQQNYDSPYTFGQGTKLEIKR | 0.32
14 | humanized antibody T15 (antibody, V domains shown, also called humanized MAb1 (H5/L5)) VH: EVQLVESGGGLVQPGRSLRLSCAASGFTFSDYYMAWVRQAPGKGLEWVASISYEGSNTNFGDSVKGRFTISRDSSKNTLYLKMNSLRAEDTAVYYCARWAQTGYYFDYWGQGTLVTVSS VL: DIQMTQSPSSLSASVGDRVTITCLASEDIYSNLAWYQQKPGKSPKLLIYYANSLNDGVPSRFSGSGSGTDFTLTISSLQPEDFATYYCQQNYDSPYTFGQGTKVEIKR | 0.26
15 | humanized antibody T16 (antibody, V domains shown, also called humanized MAb1 (H6/L2)) VH: EVQLVESGGGLVQPGRSLRLSCAGSGFTFSDYYMAWVRQAPGKGLEWVASISYEGSNTNFGDSVKGRFTISRDNSKNTLYLKMNSLRAEDTAVYYCARWAQTGYYFDYWGQGTLVTVSS VL: DIQMTQSPSSLSASVGDRVTITCLASEDIYSNLAWYQQKPGKSPKLLIYYANSLNDGVPSRFSGSGSGTDFTLTISRLQPEDFATYYCQQNYDSPYTFGQGTKVEIKR | 1.9
16 | humanized antibody T17 (antibody, V domains shown, also called humanized MAb1 (H6/L5)) VH: EVQLVESGGGLVQPGRSLRLSCAGSGFTFSDYYMAWVRQAPGKGLEWVASISYEGSNTNFGDSVKGRFTISRDNSKNTLYLKMNSLRAEDTAVYYCARWAQTGYYFDYWGQGTLVTVSS VL: DIQMTQSPSSLSASVGDRVTITCLASEDIYSNLAWYQQKPGKSPKLLIYYANSLNDGVPSRFSGSGSGTDFTLTISSLQPEDFATYYCQQNYDSPYTFGQGTKVEIKR | 2
17 | humanized antibody T18 (antibody, V domains shown, also called humanized MAb1 (H7/L2)) VH: EVQLVESGGGLVQPGRSLRLSCAGSGFTFSDYYMAWVRQAPGKGLEWVASISYEGSNTNFGDSVKGRFTISRDSSKNTLYLQMNSLRAEDTAVYYCARWAQTGYYFDYWGQGTLVTVSS VL: DIQMTQSPSSLSASVGDRVTITCLASEDIYSNLAWYQQKPGKSPKLLIYYANSLNDGVPSRFSGSGSGTDFTLTISRLQPEDFATYYCQQNYDSPYTFGQGTKVEIKR | 0.22
18 | humanized antibody T19 (antibody, also called humanized MAb1 (H8/L1)) heavy: not shown light: DIQMTQSPSSLSASVGDRVTITCLASEDIYSNLAWYQQKPGKAPKLLIYYANSLNDGVPSRFSGSGSGTDFTLTISRLQPEDFATYYCQQNYDSPYTFGQGTKVEIKRTVAAPSVFIFPPSDEQLKSGTASVVCLLNNFYPREAKVQWKVDNALQSGNSQESVTEQDSKDSTYSLSSTLTLSKADYEKHKVYACEVTHQGLSSPVTKSFNRGEC | 0.69
19 | humanized antibody T21 (antibody, also called humanized MAb1 (H10/L1)) heavy: not shown light: DIQMTQSPSSLSASVGDRVTITCLASEDIYSNLAWYQQKPGKAPKLLIYYANSLNDGVPSRFSGSGSGTDFTLTISRLQPEDFATYYCQQNYDSPYTFGQGTKVEIKRTVAAPSVFIFPPSDEQLKSGTASVVCLLNNFYPREAKVQWKVDNALQSGNSQESVTEQDSKDSTYSLSSTLTLSKADYEKHKVYACEVTHQGLSSPVTKSFNRGEC | 0.42

molecular target: T1, RX protein purified from the culture …; test: SPR (ProteOn XPR36), antibody immobilised by amine coupling on a GLM chip, purified RX protein as analyte
From the text: as §1

Row | Binder | Kd [nM] | koff [s⁻¹] | kon [M⁻¹ s⁻¹]
20 | Monoclonal Antibody 3 (MAb3) (antibody, V domains shown) VH: QVKLEESGGGLVKPGGSLKLSCAASGFSFSRNVMSWVRQTPEKRLEWVATISAGGSYTYYPDSVKGRFTISRDNAKNTLYLQMSSLRSEDTAMYYCARLNYNDNGNYFDYWGQGTTLTVSS VL: DIVMTQSTAIMSASLGEKVTMSCRASSSVVYMYWYQQKSDASPKLWIYYTSNLAPGVPARFSGSGSGNSYSLTISSMEGEDAATYYCQQFTSSPYTFGGGTKLEIKR | 0.62 | 0.0017 | 2.8e+06
21 | Monoclonal Antibody 1 (MAb1) (antibody, also called rat antibody MAb1; recombinant MAb1) heavy: EVQLVESGGGLVQPGRSLKLSCVGSGFTFSDYYMAWVRQAPKKGLEWVASISYEGSNTNFGDSVKGRFTISRDSAKSTLYLQMNSLRSEDTATYYCARWAQTGYYFDYWGQGVMVTVSSAETTAPSVYPLAPGTALKSNSMVTLGCLVKGYFPEPVTVTWNSGALSSGVHTFPAVLQSGLYTLTSSVTVPSSTWSSQAVTCNVAHPASSTKVDKKIVPRECNPCGCTGSEVSSVFIFPPKTKDVLTITLTPKVTCVVVDISQNDPEVRFSWFIDDVEVHTAQTHAPEKQSNSTLRSVSELPIVHRDWLNGKTFKCKVNSGAFPAPIEKSISKPEGTPRGPQVYTMAPPKEEMTQSQVSITCMVKGFYPPDIYTEWKMNGQPQENYKNTPPTMDTDGSYFLYSKLNVKKETWQQGNTFTCSVLHEGLHNHHTEKSLSHSPGK light: DIQMTQSPASLSASLGETVTIECLASEDIYSNLAWYQQKPGKSPQLLIYYANSLNDGVPSRFSGSGSGTQFSLKINSLQSEDVSIYFCQQNYDSPYTFGAGAKLELKRADAAPTVSIFPPSTKQLATGGASVVCLMNNFYPRDISVKWKIDGTERRDGVLDSVTDQDSKDSTYSMSSTLSLTKADYESHNLYTCEVVHKTSSSPVVKSFNRNEC | 0.16 | – | –
